# Assay results: patent US20240238419A1
# Target: TRAF6 (human) (UniProt Q9Y4K3)
# Experiment: cell-based or functional assay
# Sequence of UniProt Q9Y4K3 (Q9Y4K3 whole entry): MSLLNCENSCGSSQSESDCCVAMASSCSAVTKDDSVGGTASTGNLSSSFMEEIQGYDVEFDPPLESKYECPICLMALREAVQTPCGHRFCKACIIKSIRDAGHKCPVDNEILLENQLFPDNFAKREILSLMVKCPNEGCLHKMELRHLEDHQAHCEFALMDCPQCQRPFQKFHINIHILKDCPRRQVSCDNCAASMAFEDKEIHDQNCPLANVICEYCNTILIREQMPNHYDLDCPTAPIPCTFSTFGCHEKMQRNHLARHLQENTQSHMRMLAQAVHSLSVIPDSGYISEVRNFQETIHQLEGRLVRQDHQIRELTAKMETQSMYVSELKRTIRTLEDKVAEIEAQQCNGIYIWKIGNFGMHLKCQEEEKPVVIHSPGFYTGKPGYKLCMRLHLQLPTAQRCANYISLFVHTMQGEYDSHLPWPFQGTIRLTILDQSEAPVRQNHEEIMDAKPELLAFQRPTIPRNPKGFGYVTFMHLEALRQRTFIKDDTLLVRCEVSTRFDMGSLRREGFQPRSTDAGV
row,Substance,"activity of MALT1 detected by biotinylated MALT1 activity-based probe (bio-MALT1-ABP) pulldown, ratio of active to total MALT1, resting Jurkat T cells"
1,human MALT1A E316A/E806A (from UniProt Q9UDY8 1-824) (enzyme),50 fold
2,human MALT1B E795A (from UniProt Q9UDY8 2-824) (enzyme),5 fold
